Test results taken from patent US6894154 (REGENTS OF THE UNIVERSITY OF MICHIGAN, dated 2005).

T1: p57^Kip2 as used in the in vitro phosphorylation assay
T1 sequence (P49918 1-316, species assumed, looked up): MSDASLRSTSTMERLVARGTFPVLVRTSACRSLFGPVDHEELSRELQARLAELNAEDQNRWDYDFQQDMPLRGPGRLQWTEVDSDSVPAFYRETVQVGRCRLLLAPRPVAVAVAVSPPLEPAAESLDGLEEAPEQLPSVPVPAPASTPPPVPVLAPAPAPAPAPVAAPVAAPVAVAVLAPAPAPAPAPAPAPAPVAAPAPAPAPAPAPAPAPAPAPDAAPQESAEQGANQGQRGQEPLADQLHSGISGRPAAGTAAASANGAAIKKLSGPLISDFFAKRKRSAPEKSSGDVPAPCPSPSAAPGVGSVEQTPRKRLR

T2: NH2-terminal GST-p27^Kip1
T2 chain: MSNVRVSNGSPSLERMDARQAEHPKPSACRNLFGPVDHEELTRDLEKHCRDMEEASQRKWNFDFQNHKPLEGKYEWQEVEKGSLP

B1: in vitro translated hKIS from pcDNA3.1/His ([35S]-methionine-labeled or unlabeled, epitope-tagged) (protein)
chain: MAGSGCAWGAEPPRFLEAFGRLWQVQSRLGSGSSASVYRVRCCGNPGSPPGALKQFLPPGTTGAAASAAEYGFRKERAALEQLQGHRNIVTLYGVFTIHFSPNVPSRCLLLELLDVSVSELLLYSSHQGCSMWMIQHCARDVLEALAFLHHEGYVHADLKPRNILWSAENECFKLIDFGLSFKEGNQDVKYIQTDGYRAPEAELQNCLAQAGLQSDTECTSAVDLWSLGIILLEMFSGMKLKHTVRSQEWKANSSAIIDHIFASKAVVNAAIPAYHLRDLIKSMLHDDPSRRIPAEMALCSPFFSIPFAPHIEDLVMLPTPVLRLLNVLDDDYLGNEEEYEDVVEDVKEECQKYGPVVSLLVPKENPGRGQVFVEYANAGDSKAAQKLLTGRMFDGKFVVATFYPLSAYKRGYLYQTLL
B2: hKIS (human KIS), clone C21, fused to the GAL4 activating domain (enzyme, not shown: large carriers)
chain: B1 chain
notes: Prey of the yeast two-hybrid assay; also called the clones
B3: pLAM5′ (human laminC/GAL4 DNA binding domain) (other, UniProt P04386 1-147, looked up)
chain: MKLLSSIEQACDICRLKKLKCSKEKPKCAKCLKNNWECRYSPKTKRSPLTRAHLTEVESRLERLEQLFLLIFPREDLDMILKMDSLQDIKALLTGLFVQDNVNKDAVTDRLASVETDMPLTLRQHRISATSSSEESSNKGQRQLTVSSEEVVSREVSGIKAAYEAELGDARKTLDSVAKERARLQLELSKVREEFKELKARNTKKEGDLIAAQARLKDLEALLNSKEAALSTALSEKRTLEGELHDLRGQVAKLEAALGEAKKQLQDEMLRRVDAENRLQTMKEELDFQKNIYSEELRETKRRHETRLVEID
notes: Bought control plasmid (Clontech)

Assays:
[1] = target: p16^Ink4 as used in the in vitro phosphorylation assay
[2] = target: purified recombinant p27^Kip1 (bacterial-produced)
[3] = target: p21^Cip1 as used in the in vitro phosphorylation assay
[4] = target: NH2-terminal GST-p27^Kip1 with serine 10 to alanine (pGSTp27^Kip1 NH2S1OM)
[5] = target: T1, p57^Kip2 as used in the in vitro …
[6] = target: T2, NH2-terminal GST-p27^Kip1
[7] = target: T3, pVA3 (murine p53/GAL4 DNA binding domain) (murine, UniProt P04386 1-147; P02340 72-390); assay: yeast two-hybrid, beta-galactosidase staining
T3 construct: Bought control plasmid (Clontech)

[8] = target: B2; assay: yeast two-hybrid, beta-galactosidase staining

Q: Which results are given for B1?
A: in vitro phosphorylation in the presence of ^32P-ATP [1]: hKIS did not phosphorylate p57^Kip2, p21^Cip1 or p16^Ink4; in vitro phosphorylation in the presence of ^32P-ATP [2]: hKIS readily phosphorylated bacterial-produced p27^Kip1; in vitro phosphorylation in the presence of ^32P-ATP [3]: hKIS did not phosphorylate p57^Kip2, p21^Cip1 or p16^Ink4; in vitro phosphorylation assay [4]: mutation of serine 10 to alanine (S10A) abolished phosphorylation of GST-p27^Kip1; in vitro phosphorylation in the presence of ^32P-ATP [5]: hKIS did not phosphorylate p57^Kip2, p21^Cip1 or p16^Ink4; in vitro phosphorylation assay [6]: phosphorylation of GST-p27^Kip1 was detected in the NH2.terminal region of the protein

Q: Does B2 bind [7]?
A: Result: no binding

Q: Does B3 bind [8]?
A: Result: no binding
